The conditions of assay [1]: cited from earlier work.
Assay [2] concerns the target T1, CXCR4 (Homo sapiens, UniProt P61073). Kind of assay: Calcium flux assay (Screen Quest Fluo-8, FLIPR) in antagonist mode. Type of assay: cell-based. To be noted: SDF-1 at EC80. On the technique in general: A change in cytosolic calcium serves as a functional read-out for many receptors and channels.
Procedure: Inhibition of Ca2+ influx by controls or i-bodies (IC50) was then determined.
Mammalian cells stably expressing human CXCR4 receptor were produced in-house by Multispan, Inc (catalog no. C1004-1). Control agonist used was SDF-1 (Peprotech, Cat #300-28A).
Cells were seeded in 384-well plate at an appropriate density and cultured overnight. Calcium assay was conducted according to the manufacturer's protocols. The calcium dye loading buffer was added to the cells and incubated for one hour at 37° C. Calcium flux was monitored for 120 seconds with compound injected into the wells at 19th second. In antagonist mode, carrier or compounds were preincubated with the cells for 30 minutes before calcium flux measurement with the control agonist at EC80 concentration obtained from dose-response curve.
Assay [3] has as its system white blood cells, LSK and LSKSLAM cells in peripheral blood. Kind of assay: Stem cell mobilisation in mice after i.v. injection. To be noted: 1 and 3 hours after i.v. injection, compared to AMD3100. Type of assay: in vivo, mouse. The method, then: After 1 and 3 hours, mice were euthanized and peripheral blood (PB) harvested. Spleens were harvested and weighed to assess for splenomegaly (enlargement of the spleen). Samples were lysed to remove red blood cells and 4000 cells plated for LPP (low-proliferative potential) and CFU-HPP (colony forming unit-high proliferative potential) colonies (colony counting 7 days post-plating). The remaining cells were stained with an antibody cocktail to assess lineage-committed, stem and progenitor cell content. Flow cytometric analysis was used to calculate numbers of lineage-committed cells, haemopoietic stem and progenitor cells as well as enriched HSC per volume of PB.

Assay [4] concerns Human platelet rich plasma. Kind of assay: SDF-1α induced platelet aggregation. The format is cell-based. Particulars: 10 or 20 ug/mL, 100 nM SDF-1 alpha. The method, then:
Experiments were carried out to examine whether the i-bodies could block platelet aggregation induced by SDF-1α. […] In the presence of negative control i-body 21H5 (or the isotype control for 12G5: mouse IgG2a). SDF-1 induced a robust and reproducible aggregation (the descending black curves, which indicate an increase in light transmission), which matches with what has been previously published.

Assay [5] is described as follows: Murine air pouch model with SDF-1. The format is in vivo, BALB/c mice. To be noted: intraperitoneal, 30 minutes before SDF-1 6 μg. The method, then:
The ability of i-bodies to block inflammation was evaluated in an in vivo murine air pouch model. The subcutaneous (s.c.) air pouch is an in vivo model used to study acute and chronic inflammation (Durate et al, Models of Inflammation: Carrageenan Air Pouch, Current Protocols in Pharmacology 5.6.1-5.6.8, March 2012). Injection of irritants into an air pouch in rats or mice induces an inflammatory response that can be quantified by the volume of exudate produced, the infiltration of cells, and the release of inflammatory mediators. An air pouch, is generated by injection of sterile air under the skin of the back of the mouse. […] Air pouch lavage fluid is then analyzed for cell trafficking and cytokine release.
The air pouch assay was performed on 7-week-old BALB/c mice. On days 1 and 3, 0.2 ml/g initial body weight (IBW) of sterile air was injected under the back skin to create the pouch. […] Thirty minutes later, SDF-1 (6 μg) was injected into the pouch. Four hours later, the mice were killed in a CO2 chamber and the air pouch was washed. Cells were collected, counted, and characterized by flow cytometry.

For assay [6], the target named is T2, human CXCR4 (CXCR4 positive lipoparticles) (Homo sapiens, UniProt P61073).
T2 construct: purchased Integral Molecular LEV-101B
T2 sequence (P61073 whole entry): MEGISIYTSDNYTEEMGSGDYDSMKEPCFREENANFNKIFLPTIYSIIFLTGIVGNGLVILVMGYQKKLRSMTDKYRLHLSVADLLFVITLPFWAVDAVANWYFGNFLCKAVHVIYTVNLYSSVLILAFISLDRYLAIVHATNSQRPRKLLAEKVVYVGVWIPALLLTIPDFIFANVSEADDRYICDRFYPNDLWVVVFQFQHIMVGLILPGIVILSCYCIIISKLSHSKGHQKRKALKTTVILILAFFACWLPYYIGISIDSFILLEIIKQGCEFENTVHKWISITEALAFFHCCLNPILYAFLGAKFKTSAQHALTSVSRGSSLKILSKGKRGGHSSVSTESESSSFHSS
The assay is described as follows: Biacore SPR kinetic binding to immobilised CXCR4 lipoparticles. The method, then: (FIGS. 2A-2C, 5A-5C, 11A-11D, 17A-17B) Kinetic binding analysis of selected i-bodies with immobilized CXCR4 lipoparticles were performed at 25° C. using Biacore T200 instrument (GE Healthcare, Uppsala, Sweden). Streptavidin immobilization was performed in 1×HBS-P+ running buffer (10 mM HEPES, 150 mM NaCl, 0.05% [v/v] Tween-20). […] All binding experiments involving lipoparticles were performed with 1×HBS/BSA (10 mM HEPES, 150 mM NaCl, 1 mg/mL BSA) as instrument running buffer. […] In order to determine binding kinetics, serial dilutions (three-fold) of i-bodies diluted in 1×HBS/BSA were injected over immobilized lipoparticles with the association and dissociation phases monitored for 60 sec and 600 sec, respectively. A control measurement of the instrument running buffer (“zero-buffer” blank) solution was also included for double referencing purposes. Collected experimental data were processed using Scrubber software (www.biologic.com.au). Kinetic parameters (ka=association and kd=dissociation rate constants) and equilibrium dissociation constant (KD=kd/ka) were derived by fitting each set of experimental data to a Langmuir 1:1 binding model. All interaction measurements were performed in triplicate and the derived binding parameters reported as averaged values±standard deviation.
A general note: SPR reads the build-up and loss of mass on a sensor chip optically.

The next assay deals with T3, CCR4 (Homo sapiens, UniProt P51679).
T3 sequence (P51679 1-360): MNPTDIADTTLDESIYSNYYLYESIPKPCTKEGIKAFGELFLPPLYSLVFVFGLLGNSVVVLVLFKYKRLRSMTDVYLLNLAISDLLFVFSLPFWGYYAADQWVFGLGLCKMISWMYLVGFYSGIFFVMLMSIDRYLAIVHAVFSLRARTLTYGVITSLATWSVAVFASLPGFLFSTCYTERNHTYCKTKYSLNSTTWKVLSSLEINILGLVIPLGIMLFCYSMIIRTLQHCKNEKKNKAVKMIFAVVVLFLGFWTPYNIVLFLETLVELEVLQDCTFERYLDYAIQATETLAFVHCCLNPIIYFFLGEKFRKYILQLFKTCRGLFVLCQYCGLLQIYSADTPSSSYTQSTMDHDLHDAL
Kind of assay: PathHunter (DiscoverX) β-arrestin assay, CCR4. The format is cell-based. As for the experimental part: (FIG. 9) The PathHunter® β-Arrestin assay (DiscoveRx) was performed according to the manufacturer's protocol. Cells were seeded into white walled, 384-well tissue culture-treated microplates (Corning) and normalized at 5,000 cells (or 10,000 cells for CXCR4) in a total volume of […]. Cell growth was at 37° C. (5% CO2, 95% relative humidity). […] Agonists were then added at the EC80 concentration and incubation was continued at 37° C. for 90 min (or 180 min for CCR1). Assay signal was generated through a single addition of 15 μL (50% v/v) of PathHunter Detection reagent cocktail, followed by 1 h incubation at room temperature. Microplates were read following signal generation with a PerkinElmer Envision instrument for chemiluminescent signal detection of relative light units (RLU).

Assay [7] addresses T1, CXCR4. Kind of assay: β-arrestin BRET assay, antagonist mode with 100 nM SDF-1. Particulars: only an order of magnitude is printed in the cell. On the set-up: expressed in transfected cells; host or cells: HEK293FT. The format is cell-based. An excerpt: (FIGS. 3A-3F and 14) BRET was used in this study to assess the real-time kinetic profiles resulting from any consequent increase in proximity, building upon the previously validated monitoring of GPCR/β-arrestin interactions utilizing BRET. BRET occurs between a complementary Renilla luciferase (Rluc) variant as donor and green fluorescent protein variant as acceptor. Upon Rluc-catalyzed oxidation of the coelenterazine substrate (such as coelenterazine h for first generation BRET (BRET) or EnduRen for extended BRET (eBRET), energy is transferred to the acceptor if within 10 nm, resulting in acceptor light emission peaking at a characteristic wavelength. BRET (3-arrestin assays were carried out as described previously (See, H. B., Seeber, R. M., Kocan, M., Eidne, K. A. and Pfleger, K. D. (2011) ‘Application of G protein-coupled receptor-heteromer identification technology to monitor beta-arrestin recruitment to G protein-coupled receptor heteromers’, Assay Drug Dev Technol, 9(1), 21-30, 10.1089/adt.2010.0336). CXCR4/Rluc8 cDNA constructs were generated from plasmids containing the respective receptor cDNA tagged with Rluc kindly provided by Aron Chakera (Oxford University, United Kingdom). The β-arrestin 2/Venus cDNA construct was prepared previously from pCS2-Venus kindly provided by Atsushi Miyawaki (RIKEN Brain Science Institute, Wako-city, Japan). BRET technology in cells transiently expressing CXCR4/Rluc8 and β-arrestin2/Venus in the presence of 100 nM SDF-1 agonist was evaluated in the presence of the CXCR4 agonist SDF-1/CXCL12 and the i-bodies. HEK293FT cells were maintained at 37° C., 5% CO2 in Complete Media (Dulbecco's modified Eagle's medium containing 0.3 mg/mL glutamine, 100 IU/mL penicillin, and […] streptomycin; Gibco) supplemented with 10% fetal calf serum (FCS) and […] Geneticin (Gibco). Transfections were carried out 24 h after seeding using Genejuice (Novagen) according to manufacturer's instructions. Cells were harvested with 0.05% Trypsin-EDTA (Gibco). HEK293FT cells were transfected using FuGene6 (Promega). 5 μM coelenterazine h (Promega) in HBSS was used as the luciferase substrate solution. Cells were harvested 24 h post-transfection in HEPES-buffered phenol red-free Complete Medium containing 5% FCS and added to a poly-L-lysine-coated white 96-well plate (Nunc). Dose-response curves were generated using BRET, with medium in the plate being replaced with PBS containing […] coelenterazine h (Molecular Probes) and assays carried out immediately. For these assays, 48 h post-transfection, the plate was incubated at […], 5% CO2 for 2 h with […] EnduRen (Promega) to ensure substrate equilibrium was reached. All BRET measurements were taken at 37° C. using the VICTOR Light plate reader with Wallac 1420 software (PerkinElmer). Filtered light emissions were sequentially measured at 400-475 and 520-540 nm. The BRET signal was calculated by subtracting the ratio of 520-540 nm emission over 400-475 nm emission for a vehicle-treated cell sample from the same ratio for a second aliquot of the same cells treated with agonist (in this instance in the presence of SDF-1 or CXCL12) and i-body (ADCX-99, ADCX-272, ACDX-6, ACDX-306, ADCX-668) at various concentrations. Data are mean±S.E.M. of four independent experiments carried out in duplicate.
Binding of the i-bodies to CXCR4 were examined in a β-Arrestin BRET assay as described in See, Heng B et al (2011) Assay and Drug Development Technologies 9(1):21-30. The i-bodes were examined at ten concentrations with and without 100 nM SDF-1 with the addition of ‘vehicle’ and ‘SDF-1+vehicle’ controls in order to characterise if the i-bodies are agonist or antagonists of CXCR4 activity.
In general terms: BRET reads energy transfer from a luciferase to a nearby fluorophore.

Setting [8] is: CXCR4 expressed on lipoparticles (Table 4).
The mark [9] stands for this setting: off-rate, CXCR4 expressed on lipoparticles (Table 3).

Results on four molecules are retold here after US11142588B2, “Polypeptides which bind C-X-C chemokine receptor type 4 (CXCR4) and methods of treating or reducing the risk of fibrosis and cancer” (AdAlta Limited, priority 2015, dated 2021).

Values joined by “and” are separate entries in the source; they are usually repeats but may differ in a detail not shown here. Equal values may be shown once. “Also recorded” adds a separate entry of the source.

T1 sequence (P61073 whole entry): as the sequence (P61073 whole entry) above

`c1ccc(CNCc2ccc(CN3CCCNCCNCCCNCC3)cc2)nc1` [AMD3465]: the “effectiveness relative to AMD3100 at releasing neutrophils from the bone marrow” value in assay [1] (Hatse et al 2005) is reported as 10 fold. Further, the “diet-induced atherosclerotic lesion development” value in assay [1] (long-term inhibition, Apoe−/− and Ldlr−/− mice, Zernecke et al 2008) is “aggravated diet-induced atherosclerotic lesion development”.

B1: AM4-746: affinity matured CXCR4 i-body, SEQ ID NO: 76 (protein)
chain: LQVDIVPSQGEISVGESKFFLCQVAGSKSNIRISWFSPNGEKLTPNQQRISVVWNDDSSSTLTIYNANIDDAGIYKCVVYRTGGYRHRYLKLGEATVNVKIFQ
modifications: protein sequence encoding AM4-746
On to B1, for which the “Calcium Inhibition EC50” value in the assay with CXCR4 [2] was “uM”. In addition, the “mobilisation of white blood cells” value in assay [3] was “No mobilisation”. In addition, in assay [4], the “blocking of SDF-1α induced platelet aggregation” value is “blocked aggregation to the same extent as the MAb12G5”. In addition, the “cell migration / leukocyte infiltration into the air pouch” value in assay [5] is “inhibiting leukocyte infiltration; also recorded: inhibited cell migration”. For the same molecule, the Ka in assay [6] (setting [8]) was found to be 2.5e+06 M⁻¹ s⁻¹.

B2: AM5-245: affinity matured CXCR4 i-body, SEQ ID NO: 68 (protein)
chain: LQVDIVPSQGEISVGESKFFLCQAAGSGSHIRISWFSPNGEKLTPNQQRISVVWNDDSSSTLTIYNANIDDAGIYKCVVWRTGGYRHRALVLGEATVNVKIFQ
modifications: protein sequence encoding AM5-245
Regarding B2, in the assay with CCR4, the CCR4 activity was −5%. The “IC50 in β-Arrestin BRET assay (Antagonist mode in the presence of 100 nM SDF-1)” value with CXCR4 [7] is “~uM”. For the same molecule, in assay [6] (setting [8]), the Ka is 813000 M⁻¹ s⁻¹ and 771000 M⁻¹ s⁻¹; the “dissociation rate constant (kd)” value is 12100 M⁻¹ s⁻¹ and 12300 M⁻¹ s⁻¹. In assay [6] (setting [9]), the “dissociation rate constant (kd)” value is listed as 0.01445.

B3: AM4-1121: affinity matured CXCR4 i-body, SEQ ID NO: 48 (protein)
chain: LQVDIVPSQGEISVGESKFFLCQVAGSKSGIRISWFSPNGEKLTPNQQRISVVWNDDSSSTLTIYNANIDDAGIYKCVVYRTGGYRHRYLRLGEATVNVKIFQ
modifications: protein sequence encoding AM4-1121
With B3, the “Calcium Inhibition EC50” value with CXCR4 [2] is given as “uM”. Also, the “mobilisation of white blood cells” value in assay [3] is “No mobilisation”. In addition, the “blocking of SDF-1α induced platelet aggregation” value in assay [4] is “most effective; also recorded: most efficient”. In assay [5], the “cell migration / leukocyte infiltration into the air pouch” value is reported as “inhibiting leukocyte infiltration; also recorded: inhibited cell migration”. Moreover, in assay [6] (setting [8]), the Ka is 1.289e+06 M⁻¹ s⁻¹ and 1.42e+06 M⁻¹ s⁻¹; the “dissociation rate constant (kd)” value is 9290 M⁻¹ s⁻¹ and 9540 M⁻¹ s⁻¹. Also, the “dissociation rate constant (kd)” value in assay [6] (setting [9]) is 0.1153.
